Results from patent publication US10556936B2, “Immunogenic proteins and fragments thereof from allergenic mites” (ALK-ABELLÓ A/S, priority 2016, dated 2020).

B1: A014: house dust mite protein; SEQ ID NO: 32 (Der f), 33 (Der p) (protein)
chain: IEQVHIALGSNETEIIVTWTEPHKHDDKTSDAVVYYGQAKSSFDQKVKAISEYFKDDKTKYTTYRALLTGLLPGTEYHYRIQMDDLESSIFEFKTLKTGEENWLPRFAIYGDLGYVNEQSLPYLKKDVEQNLFDVIFHIGDFAYDLNDEHGKVGHHFMRSIEPVASKVAYMTCPGNHERHDNFSHYDSRFSMIGDRSQPIHSDKLNKRLNNHFHSMTIGPATIILFSTEYYYYTKYGWQQIEHQYRWLEQELKRANENRQKHPWIIVMGHRPLYCLKMGDDSCDHQTMERKEIRQGIRMHDEGERQYGLEDLFFKYGVDIQFYGHEHFYARLFPIYKYKMYNGTKSKNPYDHPGAPIHITTGSAGNKELHPEFNHLNDWVAEHFYDYGYTRLMFEDKYRIRLQQISDDQHGKVLDEIEIVKSSPQPHWMNVEHH
B2: A017: house dust mite protein; SEQ ID NO: 21 (Der f), 25 (Der p), 313 (Blo t) (protein)
chain: MSSSSGKKYDFSGKVALVTGSSSGIGAAIALQFAQYGAQVTITGRDAAALESVAKRIEAESGHQPLQIVGNLLDQSLPAKLIDGTISKYGRLDFLVNNAGFSTQHRDIHDEKLMEAFDQVYGLNVRAVVQLSQLAATHLEKSKGNIINISSNLSMMPVHIIYSSSKAALDMITKTMAMEFGKKGVRVNSINPGPVATQFMRSLGMPVTFLKENEEFVKELTLLKFVAQPVEIANLASFLASDDARNMTGSIVVNDTGSLLAPRVDFKKLDEIKKK
B3: A016: house dust mite protein; SEQ ID NO: 28 (Der f), 29 (Der p) (protein)
chain: MVKIGINGFGRIGRLVLRAAIKKGVEVAAINDPFLDVKYMVYMFKFDSTHGRYQGEVKEEGGLLVVDGQKIQVFQERNPAEIPWGKVGADYVVESTGVFTTIEKAKAHLAGGAKKVIISAPSADAPMYVMGVNHDKYDPKQQIISNASCTTNCLAPLAKVINDKFGIENGLMTTVHAITATQKTVDGPSGKLWRDGRGAGQNIIPASTGAAKAVGKVIPELNGKLTGMALRVPVPDVSVVDLTVTLKNPASYDEIKAAVKAAAESDHWKGILEYTDEEVVSSDFISDTHSSIFDAKAGIALTPTFVKLIAWYDNEFGYSNRVVDLIKYVASK

Tests used:
Assay type in all cases: cell-based, human
[1] = system: basophils in whole blood from HDM allergic donors; test: Basophil Activation Test (BAT); conditions: blood from HDM allergic individuals (n=14)
Experimental: Basophil Activation Test (BAT) was used as a predictive in vitro assay for indication of safety/immediate hypersensitivity reactions. The BAT assay is a widely used diagnostic test that is also used for evaluation of allergenicity of allergen derived components. In short: whole blood from HDM allergic donors was stimulated for 1 h with the proteins, and the increased expression of activation markers on the surface of basophils were measured by flow cytometry. The BAT test was carried out using different concentrations of the proteins and the allergens Der p 2 and Der p 1 was used as controls and tested in the same concentration rates.
(§1) This example relates to the further testing of immunogenicity of the proteins identified in Example 1. Their ability to react with IgE antibodies in HDM allergic individuals, to stimulate in vitro T cell proliferation of HDM allergic individuals and non-allergics, and to stimulate ex vivo cytokine production of HDM allergic individuals and non-allergics. The following tests were used: • Basophil Activation Test (BAT) was used as a predictive in vitro assay for indication of safety/immediate hypersensitivity reactions. BAT test was carried out using blood from HDM allergic individuals (n=14), and by use of different concentrations of test proteins or the major house dust mite allergens (Der p 1, Der f 1, Der p 2 or Der f 2, e.g. a concentration of 1, 10, 100 or 1000 ng/ml. • In vitro T cell reactivity determined in T cell lines obtained from HDM allergic individuals (n=30) and non-allergics (n=8): Determined by establishment of HDM specific T-cell lines according to standard methods. In short, PMBCs from HDM allergic donors were cultured for 3 weeks in the presence of house dust mite allergen extract. The responses to proteins at a concentration of 0.5 ug/ml or 2 ug/ml of the test protein or the major house dust mite allergens (Der p 1, Der f 1, Der p 2 or Der f 2) were assessed by proliferation in a standard 72 h T cell proliferation assay, as described in Henmar H et al., Clin Exp Immunol 2008; 153(3):316-23. […]. • Ex vivo stimulation of PBMC cells obtained from mite allergic patients (n=16) and non-allergics (n=6): Determined by measuring the production of the cytokines; IFN-gamma, IL-9, IL-10, IL-17 and IL-31 following stimulation with test protein in concentration up to 10 ug/ml. Freshly isolated PBMC 5×10^6/ml were cultured with a test protein for 5 days and cell supernatant were harvested and stored at −80° C. Cytokines of the supernatants were measured using ProcartaPlex Multiplex Immunoassays with MAGPIX Multiplex Reader according manufactory protocol.

[2] = system: T cell lines obtained from HDM allergic individuals and non-allergics; test: In vitro T cell proliferation test in T cell lines (Example 3); conditions: 0.5 or 2 ug/ml, 72 h; for % responders of in-vitro T cell proliferation test, Allergic: T cell lines from HDM allergic individuals (n=30); for % responders of in-vitro T cell proliferation test, Non-allergics: T cell lines from non-allergics (n=8)
Text: as §1

[3] = system: PBMC cells obtained from mite allergic patients and non-allergics; test: Ex vivo stimulation of PBMC: cytokine production (IFN-gamma, IL-9, IL-10, IL-17, IL-31)
Text: as §1

Molecule | # of individuals of 14 with positive BAT test ([1]; 1 ng/ml) | # of individuals of 14 with positive BAT test ([1]; 10 ng/ml) | # of individuals of 14 with positive BAT test ([1]; 100 ng/ml) | # of individuals of 14 with positive BAT test ([1]; 1000 ng/ml) | % responders of in-vitro T cell proliferation test, Allergic [2] | % responders of in-vitro T cell proliferation test, Non-allergics [2] | % HDM allergic individuals with cytokine production in ex-vivo T cell assay IL-5 [3] | % HDM allergic individuals with cytokine production in ex-vivo T cell assay IL-9 [3] | % HDM allergic individuals with cytokine production in ex-vivo T cell assay IL-10 [3] | % HDM allergic individuals with cytokine production in ex-vivo T cell assay IL-13 [3] | % HDM allergic individuals with cytokine production in ex-vivo T cell assay IL-17 [3] | % HDM allergic individuals with cytokine production in ex-vivo T cell assay IL-31 [3] | % HDM allergic individuals with cytokine production in ex-vivo T cell assay INF-g [3] | % non-allergic individuals with cytokine production in ex-vivo T cell assay IL-5 [3] | % non-allergic individuals with cytokine production in ex-vivo T cell assay IL-9 [3] | % non-allergic individuals with cytokine production in ex-vivo T cell assay IL-10 [3] | % non-allergic individuals with cytokine production in ex-vivo T cell assay IL-13 [3] | % non-allergic individuals with cytokine production in ex-vivo T cell assay IL-17 [3] | % non-allergic individuals with cytokine production in ex-vivo T cell assay IL-31 [3] | % non-allergic individuals with cytokine production in ex-vivo T cell assay INF-g [3]
B1 | 0 | 0 | 0 | 0 | 43% | 0% | 6% | 0% | 25% | 6% | 31% | 0% | 13% | 0% | 0% | 33% | 0% | 33% | 0% | 33%
B2 | 0 | 0 | 0 | 0 | 7% | 0% | 0% | 0% | 25% | 0% | 13% | 0% | 6% | 0% | 0% | 33% | 0% | 17% | 0% | 0%
B3 | 0 | 0 | 0 | 0 | 7% | 0% | 6% | 0% | 25% | 13% | 13% | 0% | 6% | 0% | 0% | 0% | 0% | 17% | 0% | 0%
